Assays:
4H717-bN = biological target: T1, 4H717-bN; assay: two-hybrid library CCNG1;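 also: natural log of median RNA to DNA barcode read ratio; higher means stronger binding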
T1 chain: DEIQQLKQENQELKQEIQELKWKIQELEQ

4H72-bN = biological target: T2, 4H72-bN; assay: two-hybrid library CCNG1;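 also: natural log of median RNA to DNA barcode read ratio; higher means stronger binding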
T2 chain: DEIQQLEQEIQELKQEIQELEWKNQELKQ

4H687-bN = biological target: T3, 4H687-bN; assay: two-hybrid library CCNG1;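 also: natural log of median RNA to DNA barcode read ratio; higher means stronger binding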
T3 chain: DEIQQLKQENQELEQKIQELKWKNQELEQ

4H908-bN = biological target: T4, 4H908-bN; assay: two-hybrid library CCNG1;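 also: natural log of median RNA to DNA barcode read ratio; higher means stronger binding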
T4 chain: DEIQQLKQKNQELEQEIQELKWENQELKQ

4H953-bN = biological target: T5, 4H953-bN; assay: two-hybrid library CCNG1;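 also: natural log of median RNA to DNA barcode read ratio; higher means stronger binding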
T5 chain: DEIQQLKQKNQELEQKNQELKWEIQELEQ

4H797-bN = biological target: T6, 4H797-bN; assay: two-hybrid library CCNG1;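 also: natural log of median RNA to DNA barcode read ratio; higher means stronger binding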
T6 chain: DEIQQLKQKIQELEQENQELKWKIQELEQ

4H4001-bN = biological target: T7, 4H4001-bN; assay: two-hybrid library CCNG1
T7 chain: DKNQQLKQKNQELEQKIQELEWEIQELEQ

4H754-bN = biological target: T8, 4H754-bN; assay: two-hybrid library CCNG1
T8 chain: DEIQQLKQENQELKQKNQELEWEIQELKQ

4H607-bN = biological target: T9, 4H607-bN; assay: two-hybrid library CCNG1
T9 chain: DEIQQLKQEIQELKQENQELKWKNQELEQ

4H454-bN = biological target: T10, 4H454-bN; assay: two-hybrid library CCNG1
T10 chain: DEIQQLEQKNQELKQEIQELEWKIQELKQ

4H883-bN = biological target: T11, 4H883-bN; assay: two-hybrid library CCNG1
T11 chain: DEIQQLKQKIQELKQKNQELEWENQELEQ

4H568-bN = biological target: T12, 4H568-bN; assay: two-hybrid library CCNG1
T12 chain: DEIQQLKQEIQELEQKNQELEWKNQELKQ

4H967-bN = biological target: T13, 4H967-bN; assay: two-hybrid library CCNG1
T13 chain: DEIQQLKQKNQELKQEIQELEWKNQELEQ

4H3855-bN = biological target: T14, 4H3855-bN; assay: two-hybrid library CCNG1
T14 chain: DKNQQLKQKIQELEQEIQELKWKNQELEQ

4H918-bN = biological target: T15, 4H918-bN; assay: two-hybrid library CCNG1
T15 chain: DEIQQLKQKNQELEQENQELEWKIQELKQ

4H949-bN = biological target: T16, 4H949-bN; assay: two-hybrid library CCNG1
T16 chain: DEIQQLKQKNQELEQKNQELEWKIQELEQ

4H932-bN = biological target: T17, 4H932-bN; assay: two-hybrid library CCNG1
T17 chain: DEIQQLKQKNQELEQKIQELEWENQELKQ

4H730-bN = biological target: T18, 4H730-bN; assay: two-hybrid library CCNG1
T18 chain: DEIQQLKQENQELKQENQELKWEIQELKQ

4H796-bN = biological target: T19, 4H796-bN; assay: two-hybrid library CCNG1
T19 chain: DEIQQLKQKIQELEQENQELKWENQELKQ

4H349-bN = biological target: T20, 4H349-bN; assay: two-hybrid library CCNG1
T20 chain: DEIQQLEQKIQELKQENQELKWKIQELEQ

4H56-bN = biological target: T21, 4H56-bN; assay: two-hybrid library CCNG1
T21 chain: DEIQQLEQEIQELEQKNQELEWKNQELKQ

APC6108-AA = biological target: T22, APC6108-AA; assay: two-hybrid library CCmax; conditions: mean of both orientations
T22 chain: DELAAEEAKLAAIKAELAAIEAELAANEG

APC8910-AA = biological target: T23, APC8910-AA; assay: two-hybrid library CCmax; conditions: mean of both orientations
T23 chain: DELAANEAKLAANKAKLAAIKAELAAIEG

APC7099-AA = biological target: T24, APC7099-AA; assay: two-hybrid library CCmax; conditions: mean of both orientations
T24 chain: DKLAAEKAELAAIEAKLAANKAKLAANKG

APC8191-AA = biological target: T25, APC8191-AA; assay: two-hybrid library CCmax
T25 chain: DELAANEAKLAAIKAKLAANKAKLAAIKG

APC4436-AA = biological target: T26, APC4436-AA; assay: two-hybrid library CCmax; conditions: mean of both orientations
T26 chain: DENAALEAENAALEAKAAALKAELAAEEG

APC4264-AA = biological target: T27, APC4264-AA; assay: two-hybrid library CCmax
T27 chain: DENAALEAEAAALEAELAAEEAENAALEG

APC9096-AA = biological target: T28, APC9096-AA; assay: two-hybrid library CCmax; conditions: mean of both orientations
T28 chain: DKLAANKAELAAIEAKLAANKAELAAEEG

APC9319-AA = biological target: T29, APC9319-AA; assay: two-hybrid library CCmax; conditions: mean of both orientations
T29 chain: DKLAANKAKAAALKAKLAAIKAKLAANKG

APC5383-AA = biological target: T30, APC5383-AA; assay: two-hybrid library CCmax; conditions: mean of both orientations
T30 chain: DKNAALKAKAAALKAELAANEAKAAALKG

APC542-AA = biological target: T31, APC542-AA; assay: two-hybrid library CCmax; conditions: mean of both orientations
T31 chain: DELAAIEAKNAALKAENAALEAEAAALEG

APC6088-AA = biological target: T32, APC6088-AA; assay: two-hybrid library CCmax; conditions: mean of both orientations
T32 chain: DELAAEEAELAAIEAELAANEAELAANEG

APC5009-AA = biological target: T33, APC5009-AA; assay: two-hybrid library CCmax; conditions: mean of both orientations
T33 chain: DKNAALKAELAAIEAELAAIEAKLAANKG

APC9291-AA = biological target: T34, APC9291-AA; assay: two-hybrid library CCmax; conditions: mean of both orientations
T34 chain: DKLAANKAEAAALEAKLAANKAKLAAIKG

APC9182-AA = biological target: T35, APC9182-AA; assay: two-hybrid library CCmax; conditions: mean of both orientations
T35 chain: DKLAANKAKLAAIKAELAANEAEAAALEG

APC5531-AA = biological target: T36, APC5531-AA; assay: two-hybrid library CCmax; conditions: mean of both orientations
T36 chain: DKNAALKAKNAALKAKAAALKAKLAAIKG

APC9141-AA = biological target: T37, APC9141-AA; assay: two-hybrid library CCmax; conditions: mean of both orientations
T37 chain: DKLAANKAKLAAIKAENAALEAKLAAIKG

APC4100-AA = biological target: T38, APC4100-AA; assay: two-hybrid library CCmax
T38 chain: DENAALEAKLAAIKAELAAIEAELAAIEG

APC4336-AA = biological target: T39, APC4336-AA; assay: two-hybrid library CCmax; conditions: mean of both orientations
T39 chain: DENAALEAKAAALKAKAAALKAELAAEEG

APC9806-AA = biological target: T40, APC9806-AA; assay: two-hybrid library CCmax; conditions: mean of both orientations
T40 chain: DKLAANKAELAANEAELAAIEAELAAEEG

APC7524-AA = biological target: T41, APC7524-AA; assay: two-hybrid library CCmax; conditions: mean of both orientations
T41 chain: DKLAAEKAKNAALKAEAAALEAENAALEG

APC8516-AA = biological target: T42, APC8516-AA; assay: two-hybrid library CCmax; conditions: mean of both orientations
T42 chain: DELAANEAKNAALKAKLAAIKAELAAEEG

APC8401-AA = biological target: T43, APC8401-AA; assay: two-hybrid library CCmax; conditions: mean of both orientations
T43 chain: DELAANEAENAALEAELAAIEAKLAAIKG

B1: 4H3855-bN (peptide)
chain: DKNQQLKQKIQELEQEIQELKWKNQELEQ
interaction score (4H717-bN): -0.464 | interaction score (4H72-bN): -0.0369 | interaction score (4H687-bN): -1.97 | interaction score (4H908-bN): -0.268 | interaction score (4H953-bN): -0.653 | interaction score (4H797-bN): -0.544 | interaction score (4H4001-bN): 0.118 | interaction score (4H754-bN): -0.585 | interaction score (4H607-bN): -0.914 | interaction score (4H454-bN): -0.525 | interaction score (4H883-bN): -0.0328 | interaction score (4H568-bN): 0.0333 | interaction score (4H967-bN): -0.415 | interaction score (4H3855-bN): 0.124 | interaction score (4H918-bN): -1.48

B2: 4H349-bN (peptide)
chain: DEIQQLEQKIQELKQENQELKWKIQELEQ
interaction score (4H949-bN): -0.958 | interaction score (4H932-bN): -0.258 | interaction score (4H730-bN): -1.05 | interaction score (4H796-bN): -0.249 | interaction score (4H349-bN): -1.89 | interaction score (4H56-bN): -0.3

B3: APC4264-AA (peptide)
chain: DENAALEAEAAALEAELAAEEAENAALEG
interaction score (APC6108-AA): -1.5 | interaction score (APC8910-AA): -1.81 | interaction score (APC7099-AA): -1.96 | interaction score (APC8191-AA): -1.56 | interaction score (APC4436-AA): -2.34 | interaction score (APC4264-AA): -1.24 | interaction score (APC9096-AA): -1.45 | interaction score (APC9319-AA): -1.52 | interaction score (APC5383-AA): -1.3

B4: APC4100-AA (peptide)
chain: DENAALEAKLAAIKAELAAIEAELAAIEG
interaction score (APC542-AA): -1.56 | interaction score (APC6088-AA): -1.46 | interaction score (APC5009-AA): 0.706 | interaction score (APC9291-AA): -1.29 | interaction score (APC9182-AA): -1.63 | interaction score (APC5531-AA): -0.557 | interaction score (APC9141-AA): -1.35 | interaction score (APC4100-AA): 0.507 | interaction score (APC4336-AA): -0.916 | interaction score (APC9806-AA): -1.87 | interaction score (APC7524-AA): -1.84 | interaction score (APC8516-AA): -1.71 | interaction score (APC8401-AA): -1.35
